Reference: US6005086, “Farnesoid activated receptor polypeptides, and nucleic acid encoding the same” (The Salk Institute for Biological Studies)

Legend:
FAR-RXRalpha heterodimer [1] = biological target: T1, FAR-RXRalpha heterodimer (Rattus norvegicus (FAR) / Homo sapiens …, UniProt Q62735;P19793 Q62735:1-469,P19793:1-462); test: EMSA; half-site substitutions abolish binding; details: tags: rabbit reticulocyte lysate TNT, Promega; label: 32P (Klenow)
Protocol: (§1) It was next sought to determine the DNA binding properties of the FAR-RXRα complex. Because FAR and EcR share 100% sequence identity in the DNA recognition helix (P-box, Cys^141-Lys^145), it was examined whether the FAR-RXRα complex could recognize the hsp27 […] (EcRE; Yao et al., *Cell* 71:63–72 (1992)). Electrophoretic mobility shift analysis was performed using [^32P]-labeled DNA and in vitro translated FAR and RXRα. Proteins used in electrophoretic mobility shift assays were prepared by translation in a rabbit reticulocyte lysate system (TNT, Promega). Proteins (1 µl) were incubated for 20 minutes at room temperature with 100,000 cpm of Klenow-labeled probes in 10 mM Tris pH 8, 100 mM KCl, 6% glycerol, 0.05% NP-40, 1 mM DTT, 100 ng/µl poly dI dC and then electrophoresed through a 5% polyacrylamide gel in 0.5×TBE. The gel was autoradiographed for 1.5 hours with an intensifying screen.

FAR-RXRalpha heterodimer [2] = biological target: T1, FAR-RXRalpha heterodimer; test: EMSA; mutated element not recognized; details: tags: rabbit reticulocyte lysate TNT, Promega; label: 32P (Klenow)
Protocol: as §1

FAR-RXRalpha heterodimer [3] = biological target: T1, FAR-RXRalpha heterodimer; test: EMSA; cooperative binding; details: tags: rabbit reticulocyte lysate TNT, Promega; label: 32P (Klenow)
Protocol: as §1

RXRalpha = RXRalpha (UniProt P19793 P19793:1-462); test: EMSA; RXRalpha alone, no high affinity binding; details: tags: rabbit reticulocyte lysate TNT, Promega; GenBank X52773 cited for human RXRalpha; label: 32P (Klenow)
RXRalpha, sequence (P19793 whole entry, one chain of several): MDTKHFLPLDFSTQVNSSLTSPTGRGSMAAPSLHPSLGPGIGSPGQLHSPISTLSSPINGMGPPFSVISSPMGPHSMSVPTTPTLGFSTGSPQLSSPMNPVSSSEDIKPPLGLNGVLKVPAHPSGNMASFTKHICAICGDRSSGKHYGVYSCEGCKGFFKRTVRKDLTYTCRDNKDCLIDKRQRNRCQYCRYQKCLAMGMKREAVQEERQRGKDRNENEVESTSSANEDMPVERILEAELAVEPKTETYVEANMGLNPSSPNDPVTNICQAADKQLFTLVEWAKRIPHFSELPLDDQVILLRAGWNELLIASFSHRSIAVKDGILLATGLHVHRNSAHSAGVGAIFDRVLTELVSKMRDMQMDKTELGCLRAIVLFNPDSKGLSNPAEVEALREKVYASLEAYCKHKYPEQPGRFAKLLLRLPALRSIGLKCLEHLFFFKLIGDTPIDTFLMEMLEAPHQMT
Protocol: as §1

FAR-RXRalpha heterodimer [4] = biological target: T1, FAR-RXRalpha heterodimer; test: cell_activity; 50 uM JH III; 76-fold with 100 nM LG69, 212-fold with both; parental MTV reporter lacking EcREs not activated by JH III; details: tags: CMV expression vectors in CV-1 cells
Protocol: Thus, with reference to FIG. 5A, CV-1 cells were transiently transfected with hsp27-EcRE×5 MTV-luciferase alone (−) or with expression vectors for rat FAR and/or human RXRα. Reporter activity was assayed after treating cells with or without 50 µM JH III.

T1 sequence (Q62735 whole entry, chain 1 of 2): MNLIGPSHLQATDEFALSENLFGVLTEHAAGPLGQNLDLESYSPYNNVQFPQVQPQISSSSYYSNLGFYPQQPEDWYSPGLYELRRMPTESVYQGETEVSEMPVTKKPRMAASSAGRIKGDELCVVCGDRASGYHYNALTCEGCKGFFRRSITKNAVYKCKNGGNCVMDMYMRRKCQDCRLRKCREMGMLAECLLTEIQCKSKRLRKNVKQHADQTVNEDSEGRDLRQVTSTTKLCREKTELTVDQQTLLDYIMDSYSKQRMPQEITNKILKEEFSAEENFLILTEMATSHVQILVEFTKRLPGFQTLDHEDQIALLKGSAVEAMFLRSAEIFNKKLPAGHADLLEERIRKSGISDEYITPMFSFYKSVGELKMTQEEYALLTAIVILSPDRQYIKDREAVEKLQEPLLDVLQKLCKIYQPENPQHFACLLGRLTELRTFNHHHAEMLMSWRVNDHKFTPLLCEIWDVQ
T1 sequence (P19793 whole entry, chain 2 of 2): as the sequence (P19793 whole entry, one chain of several) above

B1: IR1m (dsDNA)
DNA 1: AGAACAATGTTCT
DNA 2: AGAACATTGTTCT
- binding result (FAR-RXRalpha heterodimer [1]): no binding

B2: EcREm (mutated hsp27-EcRE) (dsDNA)
DNA 1: CGTTCAATGCACA
DNA 2: TGTGCATTGAACG
- binding result (FAR-RXRalpha heterodimer [2]): no binding

B3: idealized IR1 (dsDNA)
DNA 1: AGGTCAATGACCT
DNA 2: AGGTCATTGACCT
- binding result (FAR-RXRalpha heterodimer [3]): binds

B4: hsp27-EcRE (dsDNA)
DNA 1: GGTTCAATGCACT
DNA 2: AGTGCATTGAACC
- binding result (RXRalpha): no binding

B5: hsp27-EcRE x5 MTV-luciferase reporter (dsDNA)
DNA 1: GGTTCAATGCACT
DNA 2: AGTGCATTGAACC
- activity (FAR-RXRalpha heterodimer [4]): 17 fold activation
